Blank lines part the entries; values can stand above or below the binder they belong to.
Key:
[1] = target: T1, FLT3 with internal tandem duplication (FLT3-ITD) (human, UniProt P36888 27-543); experiment: cell-based or functional assay
T1 sequence (looked up): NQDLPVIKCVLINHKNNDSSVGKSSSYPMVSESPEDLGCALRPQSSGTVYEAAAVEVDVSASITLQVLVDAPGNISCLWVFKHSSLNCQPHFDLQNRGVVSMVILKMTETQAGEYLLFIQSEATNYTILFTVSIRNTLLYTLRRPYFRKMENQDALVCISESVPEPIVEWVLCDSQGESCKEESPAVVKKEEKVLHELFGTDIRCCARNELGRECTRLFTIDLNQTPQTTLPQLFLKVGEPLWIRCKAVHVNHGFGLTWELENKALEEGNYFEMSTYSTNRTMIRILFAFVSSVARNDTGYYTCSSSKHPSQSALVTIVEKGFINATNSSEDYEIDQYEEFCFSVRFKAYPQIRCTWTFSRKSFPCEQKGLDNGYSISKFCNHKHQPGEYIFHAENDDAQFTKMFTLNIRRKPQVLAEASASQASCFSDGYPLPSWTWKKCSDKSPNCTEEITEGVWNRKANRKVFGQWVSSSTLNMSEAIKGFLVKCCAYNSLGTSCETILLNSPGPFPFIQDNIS

[2] = target: T2, FMS-like tyrosine kinase 3 (FLT3), wild-type (human, UniProt P36888 27-993); experiment: flow cytometry, staining of THP-1 cells (FLT3 wild-type)
T2 construct: whole, on cells; also called CD135; wt FLT3
T2 sequence (looked up): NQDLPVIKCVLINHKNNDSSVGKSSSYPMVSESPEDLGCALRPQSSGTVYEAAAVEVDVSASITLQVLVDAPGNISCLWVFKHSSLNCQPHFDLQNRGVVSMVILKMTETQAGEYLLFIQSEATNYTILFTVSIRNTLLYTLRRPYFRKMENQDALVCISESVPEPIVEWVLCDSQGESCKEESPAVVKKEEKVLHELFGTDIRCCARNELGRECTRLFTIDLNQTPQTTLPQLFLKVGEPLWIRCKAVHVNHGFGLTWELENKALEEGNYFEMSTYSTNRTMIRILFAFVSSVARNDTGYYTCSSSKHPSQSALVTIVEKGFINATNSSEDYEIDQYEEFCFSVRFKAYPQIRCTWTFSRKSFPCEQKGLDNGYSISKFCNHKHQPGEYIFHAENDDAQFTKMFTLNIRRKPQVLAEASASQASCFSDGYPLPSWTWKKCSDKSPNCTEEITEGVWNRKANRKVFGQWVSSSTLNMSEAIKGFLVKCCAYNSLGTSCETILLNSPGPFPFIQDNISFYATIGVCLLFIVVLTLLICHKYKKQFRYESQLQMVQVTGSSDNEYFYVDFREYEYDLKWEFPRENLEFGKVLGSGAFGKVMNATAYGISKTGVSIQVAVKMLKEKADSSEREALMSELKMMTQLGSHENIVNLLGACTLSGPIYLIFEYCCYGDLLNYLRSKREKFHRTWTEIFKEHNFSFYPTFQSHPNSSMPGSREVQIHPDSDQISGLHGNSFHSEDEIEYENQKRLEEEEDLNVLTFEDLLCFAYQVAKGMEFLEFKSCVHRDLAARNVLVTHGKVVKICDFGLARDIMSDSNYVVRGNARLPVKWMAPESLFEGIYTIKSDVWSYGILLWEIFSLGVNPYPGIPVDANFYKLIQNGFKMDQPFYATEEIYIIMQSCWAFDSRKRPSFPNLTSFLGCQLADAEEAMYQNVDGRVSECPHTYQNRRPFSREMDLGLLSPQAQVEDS
Source text: (a) Flow cytometric analysis of FLT3 expression on AML cell lines (MOLM-13, THP-1, MV4;11) and primary AML blasts (pt #1 and #2).

ADCC, percentage of MV4;11 cells eliminated, crenolanib pre-treatment against none [1]: 3 fold
ADCC, percentage of MV4;11 cells eliminated, midostaurin pre-treatment against none [1]: 2 fold
ADCC, percentage of MV4;11 cells eliminated, quizartinib pre-treatment against none [1]: 3.5 fold
B1: anti-FLT3 BV10 mAb (Biolegend) (antibody, V domains shown)
VH: QVQLKQSGPGLVQPSQSLSITCTVSGFSLTNYGLHWVRQSPGKGLEWLGVIWSGGSTDYNAAFISRLSISKDNSKSQVFFKMNSLQADDTAIYYCARKGGIYYANHYYAMDYWGQGTSVTVSS
VL: DIVMTQSPSSLSVSAGEKVTMSCKSSQSLLNSGNQKNYMAWYQQKPGQPPKLLIYGASTRESGVPDRFTGSGSGTDFTLTISSVQAEDLAVYYCQNDHSYPLTFGAGTKLELKR

IFN-γ production, CAR-T vs MOLM-13^native [1]: 1480 pg/mL
IFN-γ production, MOLM-13^creno against MOLM-13^native [1]: 1.6 fold
IFN-γ production, MOLM-13^mido against MOLM-13^native [1]: 2.1 fold
IFN-γ production, MOLM-13^quiza against MOLM-13^native [1]: 1.2 fold
IL-2 production, MOLM-13^creno against MOLM-13^native [1]: 2 fold
IL-2 production, MOLM-13^mido against MOLM-13^native [1]: 6.6 fold
IL-2 production, MOLM-13^quiza against MOLM-13^native [1]: 1.9 fold
increase in cytolytic activity, MOLM-13^creno against MOLM-13^native, 2.5:1 E:T [1]: 1.8 fold
increase in cytolytic activity, MOLM-13^creno against MOLM-13^native, 5:1 E:T [1]: 1.6 fold
increase in cytolytic activity, MOLM-13^mido against MOLM-13^native, 2.5:1 E:T [1]: 1.6 fold
increase in cytolytic activity, MOLM-13^mido against MOLM-13^native, 5:1 E:T [1]: 1.3 fold
increase in cytolytic activity, MOLM-13^quiza against MOLM-13^native, 2.5:1 E:T [1]: 3.8 fold
increase in cytolytic activity, MOLM-13^quiza against MOLM-13^native, 5:1 E:T [1]: 1.6 fold
proliferation index, MOLM-13^creno against MOLM-13^native [1]: 1.3 fold
proliferation index, MOLM-13^mido against MOLM-13^native [1]: 1.8 fold
proliferation index, MOLM-13^quiza against MOLM-13^native [1]: 1.2 fold
B2: BV10 FLT3 CAR (other)
chain: QVQLKQSGPGLVQPSQSLSITCTVSGFSLTNYGLHWVRQSPGKGLEWLGVIWSGGSTDYNAAFISRLSISKDNSKSQVFFKMNSLQADDTAIYYCARKGGIYYANHYYAMDYWGQGTSVTVSSGGGGSGGGGSGGGGSDIVMTQSPSSLSVSAGEKVTMSCKSSQSLLNSGNQKNYMAWYQQKPGQPPKLLIYGASTRESGVPDRFTGSGSGTDFTLTISSVQAEDLAVYYCQNDHSYPLTFGAGTKLELKRESKYGPPCPPCPMFWVLVVVGGVLACYSLLVTVAFIIFWVRSKRSRGGHSDYMNMTPRRPGPTRKHYQPYAPPRDFAAYRSRVKFSRSADAPAYQQGQNQLYNELNLGRREEYDVLDKRRGRDPEMGGKPRRKNPQEGLYNELQKDKMAEAYSEIGMKGERRRGKGHDGLYQGLSTATKDTYDALHMQALPPR

binding result [2]: binds
B3: mouse-anti-human-FLT3 mAb (clone 4G8, BD Pharmagin, BD Biosciences) (antibody, V domains shown)
VH: QVQLQQPGAELVKPGASLKLSCKSSGYTFTSYWMHWVRQRPGHGLEWIGEIDPSDSYKDYNQKFKDKATLTVDRSSNTAYMHLSSLTSDDSAVYYCARAITTTPFDFWGQGTTLTVSS
VL: DIVLTQSPATLSVTPGDSVSLSCRASQSISNNLHWYQQKSHESPRLLIKYASQSISGIPSRFSGSGSGTDFTLSINSVETEDFGVYFCQQSNTWPYTFGGGTKLEIKR
notes: Bought, fluorochrome-conjugated mouse antibody, used with a mouse IgG1 isotype control; also called anti-FLT3 mAb (4G8); anti-FLT3 4G8 mAb

% proliferation, CAR-T vs MOLM-13^native [1]: 31.3%
IFN-γ production, MOLM-13^creno against MOLM-13^native [1]: 1.4 fold
IFN-γ production, MOLM-13^mido against MOLM-13^native [1]: 2.3 fold
IFN-γ production, MOLM-13^quiza against MOLM-13^native [1]: 1.4 fold
IL-2 production, MOLM-13^creno against MOLM-13^native [1]: 3.9 fold
IL-2 production, MOLM-13^mido against MOLM-13^native [1]: 12.4 fold
IL-2 production, MOLM-13^quiza against MOLM-13^native [1]: 1.9 fold
increase in cytolytic activity, MOLM-13^creno against MOLM-13^native, 2.5:1 E:T [1]: 2.5 fold
increase in cytolytic activity, MOLM-13^creno against MOLM-13^native, 5:1 E:T [1]: 2 fold
increase in cytolytic activity, MOLM-13^mido against MOLM-13^native, 2.5:1 E:T [1]: 1.5 fold
increase in cytolytic activity, MOLM-13^mido against MOLM-13^native, 5:1 E:T [1]: 1.4 fold
increase in cytolytic activity, MOLM-13^quiza against MOLM-13^native, 2.5:1 E:T [1]: 17.7 fold
increase in cytolytic activity, MOLM-13^quiza against MOLM-13^native, 5:1 E:T [1]: 1.6 fold
proliferation index, MOLM-13^mido against MOLM-13^native [1]: 1.8 fold
B4: 4G8 FLT3 CAR (other)
chain: QVQLQQPGAELVKPGASLKLSCKSSGYTFTSYWMHWVRQRPGHGLEWIGEIDPSDSYKDYNQKFKDKATLTVDRSSNTAYMHLSSLTSDDSAVYYCARAITTTPFDFWGQGTTLTVSSGGGGSGGGGSGGGGSDIVLTQSPATLSVTPGDSVSLSCRASQSISNNLHWYQQKSHESPRLLIKYASQSISGIPSRFSGSGSGTDFTLSINSVETEDFGVYFCQQSNTWPYTFGGGTKLEIKRESKYGPPCPPCPMFWVLVVVGGVLACYSLLVTVAFIIFWVRSKRSRGGHSDYMNMTPRRPGPTRKHYQPYAPPRDFAAYRSRVKFSRSADAPAYQQGQNQLYNELNLGRREEYDVLDKRRGRDPEMGGKPRRKNPQEGLYNELQKDKMAEAYSEIGMKGERRRGKGHDGLYQGLSTATKDTYDALHMQALPPR

Source: US20200206266A1 (JULIUS MAXIMILIANS UNIVERSIT T W RZBURG, published 2020)
